Patent publication US6887705B1, “Tyrosine phosphorylated cleavage furrow-associated proteins (PSTPIPs)” (Genentech, Inc., priority 1997, dated 2005)
Entries after “also recorded” stand apart in the source; their conditions may differ.

T1: PTP HSCF (Mus musculus, UniProt Q61152)
T1 construct: the PST (and C-terminal homolog) of PTP HSCF (amino acids 304-453); made in house; host or cells: E. coli DH5-alpha
T1 sequence (Q61152 304-453): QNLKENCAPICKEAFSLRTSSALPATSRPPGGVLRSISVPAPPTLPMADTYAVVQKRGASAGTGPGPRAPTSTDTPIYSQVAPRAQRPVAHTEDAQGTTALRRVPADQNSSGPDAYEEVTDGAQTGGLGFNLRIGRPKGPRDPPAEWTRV

B1: GST-PSTPIP (GST fusion of full-length PSTPIP, amino acids 2-415) (other)
chain: MAQLQFRDAFWCRDFTAHTGYEVLLQRLLDGRKMCKDVEELLRQRAQAEERYGKELVQIARKAGGQTEMNSLRTSFDSLKQQTENVGSAHIQLALALREELRSLEEFRERQKEQRKKYEAIMDRVQKSKLSLYKKTMESKKAYDQKCRDADDAEQAFERVSANGHQKQVEKSQNKAKQCKESATEAERVYRQNIEQLERARTEWEQEHRTTCEAFQLQEFDRLTILRNALWVHCNQLSMQCVKDDELYEEVRLTLEGCDVEGDINGFIQSKSTGREPPAPVPYQNYYDREVTPLIGSPSIQPSCGVIKRFSGLLHGSPKTTPSAPAASTETLTPTPERNELVYASIEVQATQGNLNSSAQDYRALYDYTAQNSDELDISAGDILAVILEGEDGWWTVERNGQRGFVPGSYLEKL
notes: Made in DH5-alpha bacteria from pGEX4T-2; also called GST-full-length PSTPIP; GST PTP PIP; not shown: glutathione S-transferase encoded by pGEX-4T-2 (Pharmacia)
B2: W232A mutant of PST PIP, C-terminal FLAG (other)
chain: MMAQLQFRDAFWCRDFTAHTGYEVLLQRLLDGRKMCKDVEELLRQRAQAEERYGKELVQIARKAGGQTEMNSLRTSFDSLKQQTENVGSAHIQLALALREELRSLEEFRERQKEQRKKYEAIMDRVQKSKLSLYKKTMESKKAYDQKCRDADDAEQAFERVSANGHQKQVEKSQNKAKQCKESATEAERVYRQNIEQLERARTEWEQEHRTTCEAFQLQEFDRLTILRNALAVHCNQLSMQCVKDDELYEEVRLTLEGCDVEGDINGFIQSKSTGREPPAPVPYQNYYDREVTPLIGSPSIQPSCGVIKRFSGLLHGSPKTTPSAPAASTETLTPTPERNELVYASIEVQATQGNLNSSAQDYRALYDYTAQNSDELDISAGDILAVILEGEDGWWTVERNGQRGFVPGSYLEKLDYKDDDDK
notes: In vitro translated or expressed in COS cells; also called W232A PST PIP; PST PIP with an alanine replacement mutation at tryptophan232
B3: PSTPIP: murine PST Phosphatase Interacting Protein, 415 residues (SEQ ID NO:1) (protein)
chain: MMAQLQFRDAFWCRDFTAHTGYEVLLQRLLDGRKMCKDVEELLRQRAQAEERYGKELVQIARKAGGQTEMNSLRTSFDSLKQQTENVGSAHIQLALALREELRSLEEFRERQKEQRKKYEAIMDRVQKSKLSLYKKTMESKKAYDQKCRDADDAEQAFERVSANGHQKQVEKSQNKAKQCKESATEAERVYRQNIEQLERARTEWEQEHRTTCEAFQLQEFDRLTILRNALWVHCNQLSMQCVKDDELYEEVRLTLEGCDVEGDINGFIQSKSTGREPPAPVPYQNYYDREVTPLIGSPSIQPSCGVIKRFSGLLHGSPKTTPSAPAASTETLTPTPERNELVYASIEVQATQGNLNSSAQDYRALYDYTAQNSDELDISAGDILAVILEGEDGWWTVERNGQRGFVPGSYLEKL
modifications: Mus Musculus

Experiments:
[1] = target: T1, PTP HSCF; assay: In vitro GST pull-down binding of PST PIP forms to PTP HSCF
Protocol: The binding was carried out according to the method of Wong and Johnson (Wong et al., J. Biol. Chem. 271(35):20981-20984 (1996)). Briefly, 1 μg of plasmid with either the PSTPIP protein or PTP HSCF under the control of the Sp6 promoter was in vitro transcribed/translated using the Promega™ TnT Rabbit Reticulocyte™ system. Samples were diluted in 50 mM HEPES, pH 7.2, 1% triton X 100, 10% glycerol, 100 mM NaCl, 5 mM EDTA and 2 μg/ml each of leupeptin, pepstatin, aprotinin, and PMSF. […] This was reacted for 1 hour at 4° C. and then the resin washed 6 times in HEPES/Triton binding buffer before SDS gel electrophoresis. The peptides were synthesized on an automated Milligen 9050 Peptide Synthesizer using standard solid phase chemistry with FMOC protected amino acids on a p-alkoxybenzyl alcohol resin. Dried peptides were re-suspended in the HEPES/Triton Binding buffer at a concentration of 10 mg/ml. Peptide inhibition was performed by adding the peptide first to the in vitro translation product and then the GST-fusion followed by the GSH-Sepharose. The binding/washing steps were as previously described. The peptides synthesized and the PTPs they were derived from were: • PXXP-HSCF: 432[…]451 (PTP HSCF) (SEQ ID NO:20), • PXXP-PEP: 782GFGNRFSKPKGPRNPPSAW800 (PTP PEP) (SEQ ID NO:21), • PXXP-PEST: 761[…]780 (PTP PEST) SEQ ID NO:22), • PXXP-CONTROL: 334[…]353 (PTP HSCF) (SEQ ID NO:23).
In vitro binding analyses between various PTP HSCF and PST PIP constructs were performed as previously described (Spencer et al, (1997), supra). Briefly, plasmids were transcribed and translated in vitro using the TnT Rabbit Reticulocyte Lysate System (Promega). Samples were diluted in 50 mM HEPES, pH 7.2, 1% triton X-100, 10% glycerol, 100 mM NaCl, and 2 μg/ml each of leupeptin, pepstatin, aprotinin and PMSF (lysis buffer). Samples were than reacted with GST fusion proteins at various concentrations, and the bound proteins were centrifuged using glutathione-sepharose beads and analyzed on SDS polyacrylamide gels. C-terminally-derived peptide inhibition studies were performed by incubating the GST fusion protein binding reactions in the presence of 10 μg/ml of the indicated peptides. Peptides were produced by FMOC-protected amino acids as previously described (Spencer et al, (1997), supra). In vivo interactions between various forms of PTP HSCF and PST PIP were also performed as previously described (Spencer et al, (1997), supra). Briefly, COS cells were transfected with various constructs, and after 48 hours, lysates were prepared and immunoprecipitated with antibodies to either the FLAG epitope contained at the C-terminus of PST PIP or an HA epitope contained at the N-terminus of PTP HSCF. The resultant blots were probed with anti-FLAG to detect PST PIP, anti-HA to detect PTP HSCF or anti-phosphotyrosine to detect levels of this modified amino acid in each protein.

[2] = tested on: CHO cells; assay: Confocal microscopy of PST PIP forms expressed in CHO cells; type: cell-based, Chinese hamster; conditions: transfected CHO cells
Protocol: Confocal microscopy was performed as previously described (Spencer et al, (1997), supra). Briefly, CHO cells in chamber slides were transfected using Lipofectamine and the indicated plasmids. 48 hours later, cells were fixed in formaldehyde and stained with an anti-FLAG epitope specific antibody (Kodak) and Fluorescein-Phalloidin (Molecular Probes). Anti-Flag stained cells were washed and stained with Cy3-conjugated sheep anti-mouse IgG. Stained cells were observed using Molecular Dynamics Confocal Microscope™ (2001) and analyzed with ImageSpace™ software (Molecular Dynamics).

Row | Molecule | precipitation of in vitro translated PTP HSCF by GST fusions of PSTPIP or its domains ([1]; ~1 microgram per ml GST fusion protein) | cellular localization of PST PIP forms (assay for correct folding) [2] | binding of in vitro translated PST PIP forms to GST fusion of C-terminal 149 amino acids of PTP HSCF [1]
1 | B1 | high degree of specificity |  | 
2 | B2 |  | indistinguishable from the wild type protein | complete loss of binding; also recorded: abolishes the interaction
3 | B3 |  | predominantly co-localized with the cortical actin cytoskeleton | capable of interacting
